The results in this text go back to the DeepSol protein solubility set.

The nature of the data set: soluble on expression in E. coli; label from the status in PepcDB or PDB records.
Turning to “RDTVVTLLLDNSGSMRGRPISIAAICADVLARTLERCNVKVEILGFTTRAWKGGLAREAWLNEGRPQQPGRLNDLRHIIYKAADAPMRRTRQNLGLMMKEGLLKENIDGEALEWAHRRMLGRREQRKILMVISDGAPVDDSTLSVNPANYLEKHLRDVIAMVERRKQVELLAIGIGHDVTRYYQRAVTITDVEQLAGAMTEQLAALFDSDPRARARVMGMKRAS”, the “soluble on expression in E. coli” value is recorded as “not soluble”.
On to “MSLDIRGIGYLGFESPNIEAWRSYGPEVLGLAIAPSPEDEPDALYLKMDDRRYRLAFQPGPIDKLAYIGWECVNRIAFEKAVKKLQDAGIAVEMGSDDLKARRAVRDVVRFKDPVGYQYELFYGQKGEPDSFVPGRRHGGFNTYGRGFGHVVVMTPEYGPELDDFLINIMGFQWYGSGAGKGKTGFYRAGLNNLTSHDIGYGHAPGRMGIQHIGLLTGDLRDVGETWDIVNKRQIQVQMTLGQHTQDPHFSFYHFSPSGFAVEVIAETHPWPGDPFELNAERLSYWGHQLVGPILGTEGHHHHHH”, for which the “soluble on expression in E. coli” value is on record as “not soluble”.
On to “GKRLGIFTHDNPDPDSMSSAYALREIAKQFDVIADILYYGEILHQKNRAMVNLLEIPMIRAPEVDLSHYDAFAIVDSSGPGVNNSIPPDIDISIVIDHHPAEKVVAEFVDLREDVGATATILTEYIKELKITPSKILATALFFGIKSETDEFKRNTRTADFLACAFLYPFVDQDLIEKIESPSI”, for which the “soluble on expression in E. coli” value is recorded as “not soluble”.
As to “MGHHHHHHSHKIRVAHTPDADDAFMFYAMTHGKVDTWLEIEHVIEDIETLNRKAFNAEYEVTAISAHAYALLDDKYRILSAGASVGDGYGPVVVAKSEISLDGKRIAVPGRYTTANLLLKLAVEDFEPVEMPFDRIIQAVLDEEVDAGLLIHEGQITYADYGLKCVLDLWDWWSEQVKLPLPLGLNAIRRDLSVEVQEEFLRAMRESIAFAIENPDEAIEYAMKYSRGLDRERAKRFAMMYVNDYTYNMPESVDAALKKLYEMAEAKGLIKMPKLDILRL”, the “soluble on expression in E. coli” value is reported as “soluble”.
Regarding “MGSDKIHHHHHHMKVVKFGGSSLATGNNVNKALNIIKNDSSRQVIVVSAPGKRTDDDIKVTDLLITYAYTSLRSNNYDDTVEKIFRRYELIAQYFDLPESDLTKIKRLLLTLPTYDYPNADYRMATFKAHGERLNAILIAKILNHQGIKTRYLEPKDVGLIVTGTPNNAEVNPETYVNLKRINLKNNEKIIFPGFYGITPSGHIATFSRGGSDITGAILARGFDAELYENFTDVDAIFSANPNIVTNPAPIKKMTYQEMRELSYAGFSVFHDEALIPAIQGEIPVNVKNTNDPEKPGTLIVPEDGFIPKHTITGIAGGKNFAALYLRKYMLNKGAGFTLKLMEIFDRHHVSYEHMPSGIDDLTIIFKKDALSDQLIDVICNEIQTSLNPDQMQWIDDYAITMVVGEGMKDKLTLCASILYPLGEKNISIQMINQGASQISIMIGTRRQDEEEVIKTIYQNFIENR”, the “soluble on expression in E. coli” value is given as “not soluble”.
With “MGSDKIHHHHHHEYKNVNEIIVEELEIPVPLGDPFILLHNGTYYAYGTHSDEGIEVYISDNLKTWKYKGLALNKKDSWADRWFWAPEVYEVNGKFYMYYSADEHICVAVADSPVGPFIQNKQEPMIVEEKCIDNSFFMDDDGTPYLSFVRFNDGNNVWIAELEKDLITLKKETMRPCIHVSQAWEEVWPRVNEGSYILKHNGIYYMTYSANSYESPFYGVGCATATDIMGEWAKYDENPLLQNPGGLVGVGHSAMFTDKEGKLRIVFHAHKDKSNIHPRAMYIGTVNFENVNGTDRMRISKEYITPKLLQ”, the “soluble on expression in E. coli” value is recorded as “not soluble”.
For “LTGFQVGPMLQYQTGFHGIVLDFSLLYVERGIKLTNTSNRRSADIKTQSIDIPIELKWEMGMSNNFDLFLGVGPSFSFLVDKDNWGRKLAHIAVDVIDKDLPSMGWRSTEVGLNLGGGVKIVNHLMVSCYYNIGLTQSAKHNIGGNKHDAIDQIFDGDVFESKNRYWQLSLAYVF”, the “soluble on expression in E. coli” value is given as “not soluble”.
As for “CRYVARNGFQGVIVQCETSDGDDIPAEDDREGPPLSRGVFYNDGYDERQGKLILGIFPTGQCPSPIGNGSGTATDVTGEPEKTFSGRGFGRTSPTGMMSSLGAQREMTGLYDLPTTNGNDGEKPADPNGEGRGFTNKNAGTSCTEANAHT”, the entry is “soluble”.
Turning to “MSRNLDSPVQTQMAVAVFKTPLTGASKMEGKQHHKHQHLQRQSSGRRVFVQTETGCVLGMELDRSDNVHTVKRRLQIALNFPTEESSLTYGDMVLTNDLSAVRNDSPLLLKRNFMHRSSSTPCLSPTGRDLQQKDRSGPIEILGHSDCFSIVKHMVKDIVKAMKMGVEPLPVHSGLGGAYYFRNKRGESVAIVKPTDEEPFAPNNPKGFVGKALGQPGLKSSVRVGETGFREVAAYLLDYGRFANVPPTALVKITHSVFNVNDGVKGNKPREKKLVSKIASFQKFVAHDFDASDHGTSSFPVTSVHRIGILDIRIFNTDRHGGNLLVKKLDGVGMFGQVELIPIDHGLCLPETLEDPYFEWIHWPQASLPFSDEEVDYIQSLDPVKDCDMLRRELPMIREACLRVLVLCTIFLKEASAYGLCLAEIGEMMTREFRPGEEEPSELEVVCIEAKRSVTERDVFSPRSDVVGEAEFQFDLDCDDLESVYSSKIQLTDDYFTKNPFSNGRSSLGKLEESIKEEEEDEEEEEDKTENTVPMIIMKDSFFSSAAFHDKAPSLSKLSTSMKNTHLSDTTRKNPKPLTRGKSENTSSGHKSANEQLPVSASFVKVADMKEDEWVLFLERFQELLGPAFAKRKTATLSKRQRLGTSCQF”, the “soluble on expression in E. coli” value is “not soluble”.
For the sequence “ESLDEVVVVGMGTQRKVSVVGAVTSVNPAAISAPSTSVANMLGGVVPGIIAVDRSGEPGQDVSEFWIRGISTFGANQSALVLIDGIEGNLNDLDPSDIESFSILKDASATAVYGVRGANGVVLVTTRSGQEGR”, the “soluble on expression in E. coli” value is recorded as “not soluble”.
For “MDTVTKLSIIIPAWNEETGIARTLETLLALTAGRGDTEIIVSVSGNDRTKAIARTFPVVVCHSEKGRAVQMNAGAKLATGSILYFLHADTTPPPSFCDDIFSAIERGARAGCFRMTFDDPDWLMQLYGWFTQFPLPVCRGGDQSLFITKELFGQIGGFDERLQIMEDIEIIDRLQRHAGFHILDSTVTTSARKYHTNGTVRLQAIFGTIHLMYALGFSQKNIVAFYRDSIRLEHHHHHH”, the “soluble on expression in E. coli” value is on record as “not soluble”.
Consider “MKIEENMELPVILVTSGVLLPGASLKIPIRSKLNIQTIEKYLTRSSNDNYVVIAYKVSTDKVYEVATIAYVEKLFGWTFNSTVHYSLDVIGLHRANIDKLSLPTCIVSKVVDLNEAISNQNAIEKLVTGAKIIASNSLTDKFSREIYSLIDEKEYGKLADLCVSQMKFLGFMQLLEFLGANGTDARVEMCIKWMNEKKDANTLKLKVPNSLEASFPVDGKKRKIPNVKNQVEQLEEKLNAIEFSDEVSDRVYSELHRLKSMNAQQSEYNILMNWLELVSSLPWNTSTIDDIELHKARTILTESHEAMDDVKERVLEHLAVCKMNNSVKGMILCFTGPPGIGKTSIAKAIAESMGRKFQRVSLGGIRDESDIRGHRRTYVAAMPGRIIEALKTCKTNNPVFLLDEVDKLYSGNQGSPSAALLELLDPEQNSTFHDHYLNIPFDVSKIMFIATANDIDRLEPALRDRLEIIEMSGYSLKEKVKICENHLLTRQLTKHCISHDYVKLERQAIVAMIEEYTMEAGVRQLERNVGAICRNVALRLAEALNSDPGADVLPVMELPIQISASNIHKILKNKHMKRVKIVEKMRPLPAGVCFGLSVTTIGGRVMPIEASKSKGTGKIVTTGHLGKVLKESILVAKGWLSANSERLGLGTLEDQDIHVHLPAGAVNKDGPSAGTGLACALVSLATNIPLRSDAAVTGEISLTGHVLPIGGVKEKVLAAQREGLRRVVLPKSNEEEYLKMDEDIRLEMDVVLAETIEDVIGAMMDKSPVLAKL”, for which the “soluble on expression in E. coli” value is listed as “not soluble”.
For the sequence “MADQYHEPVSELTGKDRDFVRALNSLKEEIEAVAWYHQRVVTTKDETVRKILEHNRDEEMEHAAMLLEWLRRNMPGWDEALRTYLFTDKPITEIEEETSGGSENTGGDLGIRKL”, the “soluble on expression in E. coli” value is “soluble”.
Turning to “MGSDKIHHHHHHARRNVLRKTWMNPENSEIIKDGRMKALFLVGMTDGDDSRMRKVVMEEARIYGDMVVVDLKDTYEELPFKSLTTLLYGTSKASEFKLIGKIDEDIMFFPDKILPLLEQNLIDPSSESIYGMLFAEGGYVYRDKEHRWFVPDSTYGCDMFPPYTGGLFYLVTQDAAKKILNATKHRIFIPIEDALINGILANDCKIPRIHLPEIYGDHHSLTDEDTRGVLAWHTGKNDQQFLDYFYRKLSESRLKKKILDEKNKHLFY”, the “soluble on expression in E. coli” value was “not soluble”.
As to “MSLKPTKIFAFGGLEEVGKNMYGIEYDDELIIVDCGIKFSSVELLGIDGIVPNFAYAKANQHKIKALVITHGHEDHIGGIPYLLREVSVPVIYAPLMATKLIEKKLHEHHNLNQYKIVSYNDKSEFSTKHFKIDFYRVCHSIPDAFGVCVQTPNGNIVESGDYRFDFNAGNEELDIHKVVEISRRGIDLFMTETTNAEIPGFSSSEKEIYDNIKNIIKNANGRVILSTFASNVTRISEVIEIAIQHGRKICLLGKSMDNNVSISRDVGYINLKDDDIVESRYVEQHPDNEIMIFCTGSQGEELAALNMLASGRHPWIQLKKTDSIIMSSNPIPGNYAAVERLLNELSKEEGISIYENSPTLKLHASGHATMQEIQLMLSLLRPKYLFPIHGEYKMFTSLKRIAKKCGFDPENVALHKNGQIVYLIDREGHHHHHH”, the “soluble on expression in E. coli” value is reported as “soluble”.
With “MPDSPVDVKTQSRLTPPTMPPPPTTQGAPRTSSFTPTTLTNGTSHSPTALNGAPSPPNGFSNGPSSSSSSSLANQQLPPACGARQLSKLKRFLTTLQQFGNDISPEIGERVRTLVLGLVNSTLTIEEFHSKLQEATNFPLRPFVIPFLKANLPLLQRELLHCARLAKQNPAQYLAQHEQLLLDASTTSPVDSSELLLDVNENGKRRTPDRTKENGFDREPLHSEHPSKRPCTISPGQRYSPNNGLSYQPNGLPHPTPPPPQHYRLDDMAIAHHYRDSYRHPSHRDLRDRNRPMGLHGTRQEEMIDHRLTDREWAEEWKHLDHLLNCIMDMVEKTRRSLTVLRRCQEADREELNYWIRRYSDAEDLKKGGGSSSSHSRQQSPVNPDPVALDAHREFLHRPASGYVPEEIWKKAEEAVNEVKRQAMTELQKAVSEAERKAHDMITTERAKMERTVAEAKRQAAEDALAVINQQEDSSESCWNCGRKASETCSGCNTARYCGSFCQHKDWEKHHHICGQTLQAQQQGDTPAVSSSVTPNSGAGSPMDTPPAATPRSTTPGTPSTIETTPR”, the “soluble on expression in E. coli” value is “soluble”.
In the case of “MTTVTVTTEVPSSGKTEDGHVFCDSSSAHIIEETEYVRQMRTTLEKIRNHMFKEKEGCGNARHKLDAEGSGNIQNGSDSTTDPTCLDLLMENMRRKDQQLLEMNRENEVLQIKLEASREAGAAALRNVAQRLFDNYQTQAGDLEKKHEGRKHLLQVNNLEKEQALKGSAESLNLLSEKLEEKHGQIVGLENRVQRMENNKELKTRVAHWTETPRTLVSKAVSTSELKTEGASPYLMLIRLRK”, the “soluble on expression in E. coli” value is listed as “not soluble”.
As to “MGSDKIHHHHHHMKEPLSLSFDEQMALFEERGMQMTSKDVEKLKVIGYYRIKQFAAPLANKKIVNENTVYDYKGIYFSDVLKRYYQDKNLRIHLLHAIEKIEVALKTWVAFILGEQYGAFGYLNFSEWCDKNRYSKFEIEKRQFFFKKDLLRATSRSCTEDIKLKKNKEKDNFPSIWLAVEVLTFGELVRLVEIMSTRNKRKLSKMFRCTDIELLSWLKCINFVRNACAHNANVIDLQLETKPVCRSDWKDYLYNVNKSNNGTPSNKLAIVIFIIKTLVTPINERYGWKNIRRNIARLVDSSDKNAHLLGFSDCASAYKVLEKSNGTTTKASLP”, the “soluble on expression in E. coli” value was “not soluble”.
As for “MEKKLVPQSISKERLQKLEAQATLTPQQEEAKARKIEREKARLKELNIPTESKESKDCSPAGMINPYALTEVILERPLDWSNPRTTDIVERVLGSSMQDLSKGDSVLRAGRDQNAEVKIVDSVLTKTQRGQDGLERILESFNDYDMPPEEKEEAAPKAKKAAQKLDIDDLREQALSSTTITKEISKIILPTKNLRDDNNTVHQYREVGFQSNGAHNLWDTVVQGIAGDC”, the entry is “not soluble”.
